Test [1] concerns the target T1, Human ILT3 (LILRB4) extracellular domain with C-terminal His Tag (human, UniProt Q8NHJ6 22-259).
T1 construct: the claims count residues 1-238 as the extracellular domain; also called human ILT3-His; ILT3_H
Put plainly: SPR (Biacore), human ILT3-His. Here is the method:
(§1) The binding kinetics and affinities of anti-human ILT3 clones for human or rhesus ILT3-His tagged recombinant protein were measured by surface plasmon resonance using a Biacore™ T200 system (GE Healthcare, Piscataway, NJ). HBS-EP+ buffer (BR-1006-69) was used as the running buffer. Anti-human Fc antibody (Human Fc Capture Kit, BR100839, GE Healthcare) was immobilized via amine coupling chemistry in all four flow cells on a Series S CM5 sensor chip (BR100530 or 29149603, GE Healthcare) following manufacturer instructions. Flow cell 1 was used as reference for background subtraction and was not used for capture. […] Following each injection cycle, all four flow cells were regenerated using 30 second injection of 3M MgCl₂ solution at a flow rate of 10 μL/minute. Reference subtracted sensorgrams were fit to a 1:1 Langmuir Binding Model in the Biacore™ T200 Evaluation Software (Version 2.0) to determine the association (ka) and dissociation (kd) rate constants and the equilibrium dissociation constant KD (=kd/ka).
For orientation: In SPR one partner is held on a chip, and binding of the other changes the refractive index at the surface.

In test [2] the target is T2, rhesus ILT3-His tagged recombinant protein (rhesus monkey (Macaca mulatta)).
T2 construct: also called ILT3_MM; not shown: His tag
T2 chain: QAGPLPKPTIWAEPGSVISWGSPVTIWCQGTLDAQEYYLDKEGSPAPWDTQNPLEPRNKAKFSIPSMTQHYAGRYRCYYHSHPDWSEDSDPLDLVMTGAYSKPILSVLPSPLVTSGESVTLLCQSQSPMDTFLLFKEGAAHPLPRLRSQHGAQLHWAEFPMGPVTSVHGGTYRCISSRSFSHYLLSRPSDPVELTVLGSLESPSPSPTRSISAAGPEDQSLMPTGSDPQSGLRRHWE
Put plainly: SPR (Biacore), rhesus ILT3-His. The procedure:
as §1

B1: Humanized anti-ILT3 mAb (52B8 VH1/VL1) IgG4 S228P/Kappa (antibody, V domains shown)
VH: EVQLVESGGGLVQPGGSLRLSCAASGFTFSNYGMSWVRQAPGKGLEWVATISGGGDYTNYPDSMRGRFTISRDNAKNSLYLQMNSLRAEDTAVYYCGRRLWFRSLYYAMDYWGQGTLVTVSS
VL: DIVLTQSPDSLAVSLGERATINCRASEKVDSFGNSFMHWYQQKPGQPPKLLIYLTSNLDSGVPDRFSGSGSRTDFTLTISSLQAEDVAVYYCQQNNEDPYTFGQGTKLEIKR
notes: also called mAb 1
For the molecule B1, the Kd (commonly a measure of binding affinity in units of concentration) in test [1] was determined as 0.99 nM; in test [2] it was 25 nM.

B2: Humanized anti-ILT3 mAb (52B8 VH1 M64V W101Q/VL5 S35A) IgG4 S228P/Kappa (antibody, V domains shown)
VH: EVQLVESGGGLVQPGGSLRLSCAASGFTFSNYGMSWVRQAPGKGLEWVATISGGGDYTNYPDSVRGRFTISRDNAKNSLYLQMNSLRAEDTAVYYCGRRLQFRSLYYAMDYWGQGTLVTVSS
VL: DIQLTQSPSSLSASVGDRVTITCRASEKVDSFGNAFMHWYQQKPGKAPKLLIYLTSNLDSGVPSRFSGSGSGTDFTLTISSLQPEDFATYYCQQNNEDPYTFGQGTKLEIKR
notes: also called mAb 59
For B2, the binding result in test [1] and in test [2] was “no binding (tested: ILT3-His injected up to 20 nM)” each time.

B3: Humanized anti-ILT3 mAb (52B8 VH1 M64V W101F/VL5 N34D) IgG4 S228P/Kappa (antibody, V domains shown)
VH: EVQLVESGGGLVQPGGSLRLSCAASGFTFSNYGMSWVRQAPGKGLEWVATISGGGDYTNYPDSVRGRFTISRDNAKNSLYLQMNSLRAEDTAVYYCGRRLFFRSLYYAMDYWGQGTLVTVSS
VL: DIQLTQSPSSLSASVGDRVTITCRASEKVDSFGDSFMHWYQQKPGKAPKLLIYLTSNLDSGVPSRFSGSGSGTDFTLTISSLQPEDFATYYCQQNNEDPYTFGQGTKLEIKR
notes: also called mAb 54
Regarding B3, the binding result in test [1] and in test [2] was “no binding (tested: ILT3-His injected up to 20 nM)” throughout.

B4: Humanized anti-ILT3 mAb (52B8 VH1 M64V W101F/VL5 S35A) IgG4 S228P/Kappa (antibody, V domains shown)
VH: EVQLVESGGGLVQPGGSLRLSCAASGFTFSNYGMSWVRQAPGKGLEWVATISGGGDYTNYPDSVRGRFTISRDNAKNSLYLQMNSLRAEDTAVYYCGRRLFFRSLYYAMDYWGQGTLVTVSS
VL: DIQLTQSPSSLSASVGDRVTITCRASEKVDSFGNAFMHWYQQKPGKAPKLLIYLTSNLDSGVPSRFSGSGSGTDFTLTISSLQPEDFATYYCQQNNEDPYTFGQGTKLEIKR
notes: also called mAb 51
For B4, the binding result in test [1] and in test [2] was “no binding (tested: ILT3-His injected up to 20 nM)” each time.

B5: Humanized anti-ILT3 mAb (52B8 VH2/VL1) IgG4 S228P/Kappa (antibody, V domains shown)
VH: EVQLVESGGGLVQPGGSLRLSCAASGFTFSNYGMSWVRQAPGKGLEWVATISGGGDYTNYPDSMRGRFTISRDNAKNSLYLQMNSLKAEDTAVYYCGRRLWFRSLYYAMDYWGQGTLVTVSS
VL: DIVLTQSPDSLAVSLGERATINCRASEKVDSFGNSFMHWYQQKPGQPPKLLIYLTSNLDSGVPDRFSGSGSRTDFTLTISSLQAEDVAVYYCQQNNEDPYTFGQGTKLEIKR
Regarding B5, the results for the Kd in test [1] and in test [2] were 0.94 nM and 25 nM, respectively.

B6: Humanized anti-ILT3 mAb (52B8 VH1 M64V W101Q/VL5 N34Q) IgG4 S228P/Kappa (antibody, V domains shown)
VH: EVQLVESGGGLVQPGGSLRLSCAASGFTFSNYGMSWVRQAPGKGLEWVATISGGGDYTNYPDSVRGRFTISRDNAKNSLYLQMNSLRAEDTAVYYCGRRLQFRSLYYAMDYWGQGTLVTVSS
VL: DIQLTQSPSSLSASVGDRVTITCRASEKVDSFGQSFMHWYQQKPGKAPKLLIYLTSNLDSGVPSRFSGSGSGTDFTLTISSLQPEDFATYYCQQNNEDPYTFGQGTKLEIKR
notes: also called mAb 61
Regarding B6, the binding result in test [1] and in test [2] was “no binding (tested: ILT3-His injected up to 20 nM)” each time.

B7: Humanized anti-ILT3 mAb (52B8 VH1 M64V W101Y/VL5 N34Q) IgG4 S228P/Kappa (antibody, V domains shown)
VH: EVQLVESGGGLVQPGGSLRLSCAASGFTFSNYGMSWVRQAPGKGLEWVATISGGGDYTNYPDSVRGRFTISRDNAKNSLYLQMNSLRAEDTAVYYCGRRLYFRSLYYAMDYWGQGTLVTVSS
VL: DIQLTQSPSSLSASVGDRVTITCRASEKVDSFGQSFMHWYQQKPGKAPKLLIYLTSNLDSGVPSRFSGSGSGTDFTLTISSLQPEDFATYYCQQNNEDPYTFGQGTKLEIKR
notes: also called mAb 57
Take B7: the binding result in test [1] and in test [2] was “no binding (tested: ILT3-His injected up to 20 nM)” in each case.

B8: Humanized anti-ILT3 mAb (52B8 VH1 M64V W101Q/VL5 N34D) IgG4 S228P/Kappa (antibody, V domains shown)
VH: EVQLVESGGGLVQPGGSLRLSCAASGFTFSNYGMSWVRQAPGKGLEWVATISGGGDYTNYPDSVRGRFTISRDNAKNSLYLQMNSLRAEDTAVYYCGRRLQFRSLYYAMDYWGQGTLVTVSS
VL: DIQLTQSPSSLSASVGDRVTITCRASEKVDSFGDSFMHWYQQKPGKAPKLLIYLTSNLDSGVPSRFSGSGSGTDFTLTISSLQPEDFATYYCQQNNEDPYTFGQGTKLEIKR
notes: also called mAb 62
Consider B8, for which the binding result in test [1] and in test [2] was “no binding (tested: ILT3-His injected up to 20 nM)” in each case.

B9: Humanized anti-ILT3 mAb (52B8 VH1 M64V W101F/VL5 S35N) IgG4 S228P/Kappa (antibody, V domains shown)
VH: EVQLVESGGGLVQPGGSLRLSCAASGFTFSNYGMSWVRQAPGKGLEWVATISGGGDYTNYPDSVRGRFTISRDNAKNSLYLQMNSLRAEDTAVYYCGRRLFFRSLYYAMDYWGQGTLVTVSS
VL: DIQLTQSPSSLSASVGDRVTITCRASEKVDSFGNNFMHWYQQKPGKAPKLLIYLTSNLDSGVPSRFSGSGSGTDFTLTISSLQPEDFATYYCQQNNEDPYTFGQGTKLEIKR
For the molecule B9, the binding result in test [1] and in test [2] was “no binding (tested: ILT3-His injected up to 20 nM)” each time.

B10: Humanized anti-ILT3 mAb (52B8 VH1 M64V W101Y/VL5 N34D) IgG4 S228P/Kappa (antibody, V domains shown)
VH: EVQLVESGGGLVQPGGSLRLSCAASGFTFSNYGMSWVRQAPGKGLEWVATISGGGDYTNYPDSVRGRFTISRDNAKNSLYLQMNSLRAEDTAVYYCGRRLYFRSLYYAMDYWGQGTLVTVSS
VL: DIQLTQSPSSLSASVGDRVTITCRASEKVDSFGDSFMHWYQQKPGKAPKLLIYLTSNLDSGVPSRFSGSGSGTDFTLTISSLQPEDFATYYCQQNNEDPYTFGQGTKLEIKR
notes: also called mAb 58
As to B10, the binding result in test [1] and in test [2] was “no binding (tested: ILT3-His injected up to 20 nM)” in each case.

B11: Humanized anti-ILT3 mAb (52B8 VH2 M64V/VL1) IgG4 S228P/Kappa (antibody, V domains shown)
VH: EVQLVESGGGLVQPGGSLRLSCAASGFTFSNYGMSWVRQAPGKGLEWVATISGGGDYTNYPDSVRGRFTISRDNAKNSLYLQMNSLKAEDTAVYYCGRRLWFRSLYYAMDYWGQGTLVTVSS
VL: DIVLTQSPDSLAVSLGERATINCRASEKVDSFGNSFMHWYQQKPGQPPKLLIYLTSNLDSGVPDRFSGSGSRTDFTLTISSLQAEDVAVYYCQQNNEDPYTFGQGTKLEIKR
notes: also called mAb 13
Consider B11, for which the figures for the Kd in test [1] and in test [2] were 0.94 nM and 25 nM, respectively.

B12: Humanized anti-ILT3 mAb (52B8 VH1 M64V W101F/VL5 N34Q) IgG4 S228P/Kappa (antibody, V domains shown)
VH: EVQLVESGGGLVQPGGSLRLSCAASGFTFSNYGMSWVRQAPGKGLEWVATISGGGDYTNYPDSVRGRFTISRDNAKNSLYLQMNSLRAEDTAVYYCGRRLFFRSLYYAMDYWGQGTLVTVSS
VL: DIQLTQSPSSLSASVGDRVTITCRASEKVDSFGQSFMHWYQQKPGKAPKLLIYLTSNLDSGVPSRFSGSGSGTDFTLTISSLQPEDFATYYCQQNNEDPYTFGQGTKLEIKR
notes: also called mAb 53
B12 registered a Kd in test [1] of 35 nM. The binding result in test [2] is recorded as “no binding (tested: ILT3-His injected up to 20 nM)”.

B13: Humanized anti-ILT3 mAb (52B8 VH1 M64V W101Q/VL5 S35N) IgG4 S228P/Kappa (antibody, V domains shown)
VH: EVQLVESGGGLVQPGGSLRLSCAASGFTFSNYGMSWVRQAPGKGLEWVATISGGGDYTNYPDSVRGRFTISRDNAKNSLYLQMNSLRAEDTAVYYCGRRLQFRSLYYAMDYWGQGTLVTVSS
VL: DIQLTQSPSSLSASVGDRVTITCRASEKVDSFGNNFMHWYQQKPGKAPKLLIYLTSNLDSGVPSRFSGSGSGTDFTLTISSLQPEDFATYYCQQNNEDPYTFGQGTKLEIKR
notes: also called mAb 60
On to B13, for which the binding result in test [1] and in test [2] was “no binding (tested: ILT3-His injected up to 20 nM)” in each case.

B14: Humanized anti-ILT3 mAb (52B8 VH1 M64L/VL1) IgG4 S228P/Kappa (antibody, V domains shown)
VH: EVQLVESGGGLVQPGGSLRLSCAASGFTFSNYGMSWVRQAPGKGLEWVATISGGGDYTNYPDSLRGRFTISRDNAKNSLYLQMNSLRAEDTAVYYCGRRLWFRSLYYAMDYWGQGTLVTVSS
VL: DIVLTQSPDSLAVSLGERATINCRASEKVDSFGNSFMHWYQQKPGQPPKLLIYLTSNLDSGVPDRFSGSGSRTDFTLTISSLQAEDVAVYYCQQNNEDPYTFGQGTKLEIKR
notes: also called mAb 17
As for B14, the results for the Kd in test [1] and in test [2] were 0.87 nM and 24 nM, respectively.

B15: Humanized anti-ILT3 mAb (52B8 VH1 M64V/VL1) IgG4 S228P/Kappa (antibody, V domains shown)
VH: EVQLVESGGGLVQPGGSLRLSCAASGFTFSNYGMSWVRQAPGKGLEWVATISGGGDYTNYPDSVRGRFTISRDNAKNSLYLQMNSLRAEDTAVYYCGRRLWFRSLYYAMDYWGQGTLVTVSS
VL: DIVLTQSPDSLAVSLGERATINCRASEKVDSFGNSFMHWYQQKPGQPPKLLIYLTSNLDSGVPDRFSGSGSRTDFTLTISSLQAEDVAVYYCQQNNEDPYTFGQGTKLEIKR
notes: also called mAb 9
Regarding B15, the Kd in test [1] was determined as 0.94 nM; in test [2] it was 26 nM.

For the origin of these results see patent US20260167718A1 (Merck Sharp & Dohme, published 2026).
